B1: 1082 (protein, listed as Streptomyces avermitilis)
chain: MSALRVTSPSVEYVQRPLGLDAAHPRLSWPMASAAPGRRQSAYQVRVASSAAGLSHPDVWDSGKVVSDDSVLVPYAGPPLKPRTRYFWSVRVWDADGGASEWSAPSWWETGLMGASQWSAKWISAPAPLTEAPSLEGSSWIWFPEGEPANSAPAATRWFRRTVDLPDDITGATLAISADNVYAVSVDGAEVARTDLEADNEGWRRPAVIDVLDHVHSGNNTLAVSASNASVGPAGWICVLVLTTASGEKKIFSDASWKSTDHEPADGWREPDFDDSGWPAAKVAAAWGAGPWGRVAPVASAANQLRHEFRLPHKKVSRARLYATALGLYEAHLNGRRVGRDQLAPGWTDYRKRVQYQTYDVTSSVRPGANALAAYVAPGWYAGNVGMFGPHQYGERPALLAQLEVEYADGTSERITSGPDWRAASGPIVSADLLSGETYDARKETAGWTSPGFDDRAWLAVRGADNDVPEQIVAQVDGPVRIAKELPARKVTEPKPGVFVLDLGQNMVGSVRLRVSGDAGTTVRLRHAEVLNPDGTIYTANLRSAAATDTYTLKGQGEETYEPRFTFHGFRYVEVTGFPGKPSTTSVTGRVMHTSAPFTFEFETNVPMLNKLHSNITWGQRGNFLSVPTDTPARDERLGWTGDINVFAPTAAYTMESARFLTKWLVDLRDAQTSDGAFTDVAPAVGNLGNGVAGWGDAGVTVPWALYQAYGDRQVLADALPSVHAWLRYLEKHSDGLLRPADGYGDWLNVSDETPKDVIATAYFAHSADLAARMATELGKDAAPYTDLFTRIRKAFQTAYVASDGKVKGDTQSAYVLTLSMNLVPDALRKAAADRLVALIEAKDWHLSTGFLGTPRLLPVLTDTGHTDVAYRLLHQRTFPSWGYPIDKGSTTMWERWDSIQPDGGFQTPEMNSFNHYAYGSVGEWMYANIAGIAPGRAGYRQVVIRPRPGGEVTSARATFASLHGPVSTRWQQRSGGFVLTCSVPPNTTAEVWIPADHPDRVQHTHGTFVRAEDGCAVFEVGSGSHRFTV
B2: 1018 (protein)
chain: MFELDRRALLLGLPVTSGALADGASQTSRWRAVGLRTAMRRQPLGIDDPQPMLSWRLEGPAGAVQSAYQIMVASTAEKLHAGVADLWDSGRVKSSESVGVRYGGAPLKPRQRCVWRVRAWDAAGRASDWSPPATWEMGLIDQSEWIGDWLAVEAADERDDRVAGVRWVETQTPKPHETCRFRLSFRSGGGEGRLAIMAEGKLSKLVLDGRSIELPWRDPNGYGDPPALGLPLQLEAGAHELIAEVTSTGPGEGPGRAALGAQVRVLAADGAARRIVDGWETEAAGAWTPAVVRTAQPHFPWPPTPARLLRRTFTLSKPPTQARLYVSALGGYRIWLNGRRVGDDELQTEPAAYRRHVPYRAYDVTDLLRDGENVVGLIVGDGTFASYQAPDGRYAYGPGPRRVRLFLESRDSGDRVERVATDGEWRHALSPVLMSEIYAGEDHDLRLWPRGWAEPGFDDSGWSRVWTAPPPEGAPCALLSEPIRETRVLKAASIRAVGPGRHIVDFGQNFAGRVRLRVKGAKGAPVIVRHAEILDGQGALDRRNLRVARAEDRYILNGDDAPETLQPSFTYQGFRYAEIEGVAGLDRDMIDGVVLSSDLPEIGVFRTAEPLVQNLWLNSLWSQRSNFMGIPTDCPQRDERLGWTGDAQVFWETAAFNMDVGGFTRGFARTLRDDQAPNGAYPMWSPSPRGLGWGTTTPTPGWADGGVMLPYVAYLHSGDRSIVDENWTAMSAYVSGVLAENPDGLWRRGRGADFGDWLALDGKWPGDETTPKDLIATAMLARSVDQLAQMAAWTGRSAEAKTWRGQADRIKAAFASAFVRADGTVGNGSHTGYILALRLGLAPQPLRKAAGEHLAADIRRRGTLLSTGFLGTPLALDALADHGHAGLAFDLLLRTEYPSWGYMVRRGATTTWERWNGDTGDVSMNSFNHYALGAICGFLYRRVAGVEPITPGFGAFRVAPLIDPRLRSAGATVDSVRGRIETDWRVTGDKAVLKVRVPANSRAEVVLPTLTRSLGAGDHTLSVPLAK
modifications: Caulobacter vibrioides
B3: 1076 (protein, listed as Kribbella flavida)
chain: MSFRTRFGCLLAAVLLLTPLVPATGSPPATRETLQVRNLKTNNLTNPLGVPGTPPRLSWQLDGDRRGITQSRYQIRVASTPAKTARPDIWDSGVVRSTDSIEVPYGGPALTTGTAYHWTVRVWDDAGKASAWSPVATFETGPLRPGDWQGDWIGADNQPGPEWTDTTIDADVTLVKDALGVFFRGRGGVGYMWQLNQLTPDKPLLRPHVRQPGGGYVLLGEIPLAAGTDLKQRHHLRITVAGRTITTWLDGVQVDSRERSDHNAPGVVGFRTDGAEHGVVHSLKVTNVAGEVLVDTAFPAGDQTFPDGTVRAEGGLQVKGTTDLWLPGKPIPVFRKAISLPKAKKVASARIDAAAQGIYELTVNGRKAGDHQLAPGWTDYARRIQSQTYDVTKLLKSGANTLGAEVAPGWFTGNLAMFGPNKYGTDTAFIAQLRVTYTDGTADVFATDSSWQTAPGAVRVADLLNGESYDARRTASEWVPAQVRPSATAKIVPQTDQPVRVTQELKARAIPSPTPGAYLYDLGQNMVGIARLTLHGRPGQTVKIRYGEVLNPDGTLYTDNLRSAKATDHYTFATSRPETYQPRFTFHGFRYVEVSGLPTAPPASAIVGVVLGTDAEQVNEFRTNSPLVNQLHSNIVWGQRGNFLSIPTDTPARDERMGWTGDINVFARTAVYNLDSQAFLTKWLQDLRDTQRADGAYASVAPTVPNSFDGGMGNAGWADAGVNVPWTLWQAYGDTSVIRQHYASMTRYVDYLVASSNGLIRGGGDYGDWLNLDDPTPGELIGTSFVAKGARQLSQMAAAIGHTADAAKYQRVYEDVRAAFAARFVAADGKVGSDSQTGYILAFTSDLVPADRIAAAGEHFAATILRRDTHLSTGFLGVDGLLPVLTKIGRTDLAYRLLQNTSYPSWGYEIGKGATTIWERWNSINPDGTFNDVGMNSFNHYAYGAVGEWMYRTLAGLSAAEPGYRKALIAPTPGDGIDTAQLRHRTPYGEVGSQWRRLADGRFTLEVEVPANTTATVRLPAAEARQITESGRALSRAVGVSGVVDEGTTVALTVGSGNYRFAVRP
B4: 1066 (protein, listed as Caulobacter segnis)
chain: MQIDRRRVMLLGGAGSLVVAQGEAAPLGAAAISDCRVCGLETPLALGAATPRFSWRLSGPRPQAAYRITVARSAADLSAPRDLVWDSGKVASGQSFDIAFGGPAAAPRQVFWWRVEAWDDKGARAVGRPARWETGLLSASDWNAAWLAAEDATAKADRLAGVHWISGPESITDKTSKRCYRTSFEVPAQSDGTLFLAASGLAGVFLNGQELAAGEEEPTRFTTMSPYPLALRQGRNVIAIAQTPSRDLGGPQPMLCALIRLGGSERRLSTAEGWKTTVNAPEGWTLPDFDDGAWPAATTARNRPRGQPLPPGAATHLRRAFRLDKPVAQARLYATALGAYEAWINGAPADERKMAPEPTNLLERVLYQAYDVTAALRAGDNVLGLWVGDGWYASEFSANARFCFGPAPCRAMAQLEILFIDGSRQVIATDDQWRIAPSAILTSEIYDGEVYDARQEIKDWALPGTPQGGWRPAETVEAPNLPIDPQVSPPIRVTQRLKPKAVTSPKPGVHVFDFGQNFAGWAELAISGKAGTRIELLFGEYLKPDGQVDQANLRTAFARDTYVLKGQGREVWSPRFTYHGFRYVEVRGLANAPAADLLTGLVGHNDIRVSGVLRVGAPVVEQFWRNSVWSQRSNFFGLPTDCPQRDERLGWLGDAAVFWPAAAYNMDVEAFTRRFMGDVRRAQRPDGQFPDCIPPFMVPSSRSAPGWSDAGVILPYTAWRQYGDTGVIAENWEAMERYLAFILAKNPDYLWKSSKGNDYGDWLAVDAKYLGEATTPKDLIGTAFWAADAAMMRDMAKAIGKAEAAERYRALFEAIRAAFAGAYVQADGKIGNGSQTSYILAIRFGLLSPEQASEAGRRLAADIAARGGKLSTGFLGTPHILDALADTGHEATAVGLLLQRDYPSWGYMVTKGATTMWERWNSDTGDLSMNSYNHYAFGAIGDFLFRRIAGLAAVEPGFAKVVIAPIFDRRLGSAGADYDSVSGRLSSNWRYEGDTVRLDLSIPPGVQAEVVIPTAARAVRVDGRPVPSARFRVERGQHRVVFTA

Assays:
Assay type in all cases: biochemical, Quillaja saponaria
[1] = Experiment 6-1: screening of rhamnosidases for derhamnosylation of saponins in treated bark extract (2%), QS-17 2296 to QS-18 2150 (PAR %); conditions: TBE 2%, pH 7.5, 30 degC, 18 h; TIC peak area ratio percent of rhamnosylated starting saponin to derhamnosylated product, LCMS/MS; negative controls 4.876, 5.225
[2] = Experiment 6-1: screening of rhamnosidases for derhamnosylation of saponins in treated bark extract (2%), desglucosyl-QS-17 2134 to QS-21 1988 (PAR %); conditions: TBE 2%, pH 7.5, 30 degC, 18 h; TIC peak area ratio percent, LCMS/MS; negative controls 2.719, 2.158
[3] = Experiment 6-1: screening of rhamnosidases for derhamnosylation of saponins in treated bark extract (2%), QS-17 2310 to QS-18 2164 (PAR %); conditions: TBE 2%, pH 7.5, 30 degC, 18 h; TIC peak area ratio percent, LCMS/MS; negative controls 3.061, 2.429
[4] = Experiment 6-2: screening of rhamnosidases for derhamnosylation of saponins in treated bark extract (25%), relative % of Left, Middle and Right Peak by UV HPLC; conditions: TBE 25%, pH 7.4, 19.5 h; for Left Peak: mainly QS-17 family, negative control 24%; for Middle Peak: mainly QS-18 and desglucosyl-QS-17 family, negative control 50%; for Right Peak: mainly QS-21 family, negative control 26%
[5] = Experiment 6-3: screening of rhamnosidases for derhamnosylation of saponins in crude bark extract (80%), relative % of Left, Middle and Right Peak by UV HPLC; conditions: CBE 80%, pH 7.4, 30 degC, 19.5 h; for Left Peak: mainly QS-17 family, negative control 27%; for Middle Peak: mainly QS-18 and desglucosyl-QS-17 family, negative control 48%; for Right Peak: mainly QS-21 family, negative control 26%
In short: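 Clarified lysates of expressed rhamnosidase variants were incubated with crude bark extract (pH 7.4, final 80%) at 30 degC with shaking for 19.5 h, then quenched with MeCN+2% AcOH. UV HPLC gave relative % of Left (QS-17), Middle (QS-18/desglucosyl-QS-17) and Right (QS-21) peaks.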

[6] = Experiment 6-1: specificity of rhamnosidases towards other rhamnose residues (C3 saccharide rhamnose, C28 saccharide rhamnose); conditions: TBE 2%, pH 7.5, 30 degC, 18 h; LCMS/MS; negative controls 0.18, 0.17

Row | Molecule | QS-17 (PAR %) [1] [%] | Peak75 (PAR %) [2] [%] | Peak57 (PAR %) [3] [%] | Left Peak [4] [%] | Middle Peak [4] [%] | Right Peak [4] [%] | Left Peak [5] [%] | Middle Peak [5] [%] | Right Peak [5] [%] | ratio PP/QS-21 [6]
1 | B1 | 3.122 | 1.614 | 0.000 | 19 | 55 | 26 | 26 | 47 | 27 | 0.21
2 | B2 | 1.512 | 2.651 | 0.547 | 22 | 52 | 26 | 26 | 48 | 26 | 0.17
3 | B3 | 3.766 | 1.961 | 1.295 | 22 | 52 | 26 | 26 | 48 | 27 | 0.19
4 | B4 | 2.194 | 1.220 | 0.896 | 20 | 53 | 27 | 26 | 48 | 27 | 0.18

From US20240026407A1, “MODIFICATION OF SAPONINS” (GLAXOSMITHKLINE BIOLOGICALS SA, priority 2020, published 2024)
